Molecular target: the molecule itself
Experiment: crystal structure

B1: betaine aldehyde dehydrogenase from Burkholderia pseudomallei (enzyme)
chain: MSVYGLQRLYIAGAHADATSGKTFDTFDPATGELLARVQQASADDVDRAVASAREGQREWAAMTAMQRSRILRRAVELLRERNDALAELEMRDTGKPIAETRAVDIVTGADVIEYYAGLATAIEGLQVPLRPESFVYTRREPLGVCAGIGAWNYPIQIACWKSAPALAAGNAMIFKPSEVTPLSALKLAEIYTEAGVPAGVFNVVQGDGSVGALLSAHPGIAKVSFTGGVETGKKVMSLAGASSLKEVTMELGGKSPLIVFDDADLDRAADIAVTANFFSAGQVCTNGTRVFVQQAVKDAFVERVLARVARIRVGKPSDSDTNFGPLASAAQLDKVLGYIDSGKAEGAKLLAGGARLVNDHFASGQYVAPTVFGDCRDDMRIVREEIFGPVMSILSFETEDEAIARANATDYGLAAGVVTENLSRAHRAIHRLEAGICWINTWGESPAEMPVGGYKQSGVGRENGITTLEHYTRIKSVQVELGRYQPVF
notes: also called BpBADH; BpBADH-His; not shown: His6, C-terminal, kept
Does B1 bind?
Result: binds

Source: paper PMC8805214, “Crystal structure of betaine aldehyde dehydrogenase from Burkholderia pseudomallei” (Acta Crystallographica. Section F, Structural Biology …, 2022)
